What is called IC50 is the point on the concentration scale where inhibition reaches its midpoint. Read a high IC50 as weaker potency in that assay.

The test deals with Bovine dermal collagen type I (bovine) (UniProt P02453). The test can be described thus: ELISA. (ELISA stands for enzyme-linked immunosorbent assay.)
Chain of UniProt P02453 (P02453 162-1217, chain 1 of 2): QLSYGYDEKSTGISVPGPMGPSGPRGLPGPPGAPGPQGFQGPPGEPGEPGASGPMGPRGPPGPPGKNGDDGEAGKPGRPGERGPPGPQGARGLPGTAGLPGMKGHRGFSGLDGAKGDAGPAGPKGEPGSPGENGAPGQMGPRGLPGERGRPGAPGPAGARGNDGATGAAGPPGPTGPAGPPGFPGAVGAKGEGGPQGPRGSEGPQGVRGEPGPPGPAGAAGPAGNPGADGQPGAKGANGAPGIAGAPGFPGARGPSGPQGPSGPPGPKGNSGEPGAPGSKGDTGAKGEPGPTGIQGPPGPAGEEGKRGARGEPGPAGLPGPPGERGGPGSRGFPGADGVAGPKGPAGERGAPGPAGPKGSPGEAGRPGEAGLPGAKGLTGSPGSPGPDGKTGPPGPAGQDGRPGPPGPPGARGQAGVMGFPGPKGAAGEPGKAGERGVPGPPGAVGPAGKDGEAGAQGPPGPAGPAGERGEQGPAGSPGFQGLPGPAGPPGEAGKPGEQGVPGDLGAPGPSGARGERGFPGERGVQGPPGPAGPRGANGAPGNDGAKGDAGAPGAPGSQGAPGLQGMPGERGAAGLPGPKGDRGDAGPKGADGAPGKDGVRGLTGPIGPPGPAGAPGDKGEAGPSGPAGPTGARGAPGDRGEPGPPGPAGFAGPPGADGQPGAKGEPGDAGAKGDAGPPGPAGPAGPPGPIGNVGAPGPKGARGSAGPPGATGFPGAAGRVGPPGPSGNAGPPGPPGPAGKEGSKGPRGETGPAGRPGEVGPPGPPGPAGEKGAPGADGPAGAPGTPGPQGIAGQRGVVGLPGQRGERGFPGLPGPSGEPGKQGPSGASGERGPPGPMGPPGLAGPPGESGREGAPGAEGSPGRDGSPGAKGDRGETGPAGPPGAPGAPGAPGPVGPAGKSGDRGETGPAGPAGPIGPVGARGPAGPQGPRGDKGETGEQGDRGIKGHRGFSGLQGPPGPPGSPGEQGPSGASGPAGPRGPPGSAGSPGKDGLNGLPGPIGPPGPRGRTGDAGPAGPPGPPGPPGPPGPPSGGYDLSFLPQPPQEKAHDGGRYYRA
Chain of UniProt P02453 (P02465 80-1117, chain 2 of 2, further chain): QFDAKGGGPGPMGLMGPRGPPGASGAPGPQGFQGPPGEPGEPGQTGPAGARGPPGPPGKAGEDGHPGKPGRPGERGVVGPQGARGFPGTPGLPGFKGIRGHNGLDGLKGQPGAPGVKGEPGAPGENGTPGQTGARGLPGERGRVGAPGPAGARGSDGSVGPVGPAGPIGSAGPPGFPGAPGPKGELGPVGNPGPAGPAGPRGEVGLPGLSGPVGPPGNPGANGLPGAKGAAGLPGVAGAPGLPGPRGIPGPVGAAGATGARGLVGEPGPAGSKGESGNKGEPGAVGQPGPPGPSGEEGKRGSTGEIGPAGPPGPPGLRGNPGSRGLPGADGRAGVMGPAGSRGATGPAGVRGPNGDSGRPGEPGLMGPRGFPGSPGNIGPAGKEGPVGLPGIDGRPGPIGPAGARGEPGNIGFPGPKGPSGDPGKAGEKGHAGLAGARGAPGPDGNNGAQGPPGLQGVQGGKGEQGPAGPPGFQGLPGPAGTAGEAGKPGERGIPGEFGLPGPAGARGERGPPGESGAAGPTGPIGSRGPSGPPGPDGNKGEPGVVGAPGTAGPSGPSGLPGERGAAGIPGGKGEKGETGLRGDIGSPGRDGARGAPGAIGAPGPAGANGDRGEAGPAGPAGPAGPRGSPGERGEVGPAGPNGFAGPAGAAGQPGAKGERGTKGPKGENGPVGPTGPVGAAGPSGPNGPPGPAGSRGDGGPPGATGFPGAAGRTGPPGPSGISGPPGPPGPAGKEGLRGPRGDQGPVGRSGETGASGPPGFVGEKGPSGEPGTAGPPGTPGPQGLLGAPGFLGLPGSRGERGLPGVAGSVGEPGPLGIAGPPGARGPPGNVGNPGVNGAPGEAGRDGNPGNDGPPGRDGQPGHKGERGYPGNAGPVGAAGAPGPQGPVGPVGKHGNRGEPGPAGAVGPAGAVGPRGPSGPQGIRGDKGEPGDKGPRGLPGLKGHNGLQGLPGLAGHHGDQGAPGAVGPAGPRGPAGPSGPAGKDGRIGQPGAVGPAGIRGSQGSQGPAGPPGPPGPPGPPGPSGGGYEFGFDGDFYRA

“Antibody (anti-Fc) induced oligomers of DDR1-Fc (from UniProt Q08345 21-417) (complex)” registered an IC50 of 2.5 nM. That is a single-digit nanomolar value.

In turn, “Fc-tagged extracellular domain of human DDR1 (dimeric DDR1-Fc) (from UniProt Q08345 21-417) (Fc fusion)” gave a half-inhibitory concentration (IC50) of 7.85 nM.

These data come from article PMC3785576.
